Source: doi:10.1101/2025.10.17.683123

Molecular target: HCMV Pr S225M (human cytomegalovirus) (UniProt P16753)
Experiment: SEC-MALS; HCMV Pr alone on SEC, eluate into Wyatt Dawn Pro and Optilab; concentration not given

## HCMV Pr S225M (from UniProt P16753) (enzyme)
  stoichiometry N: 2
